Measured values taken from US7851182 (CONARIS RESEARCH INSTITUTE, dated 2010).

Target: T1, IL-6/soluble IL-6 receptor complex (human, UniProt P05231 30-212; P08887 20-358, limits assumed)
T1 construct: also called IL-6/sIL-6R complex; IL-6/sIL-6R
Experiment: ELISA, coated Fc fusion, IL-6 + sIL-6R titrated, anti-sIL-6R detection
Description: Comparison of the IL-6/sIL-6R Complex Binding Properties of sgp130Fc and sgp130(D1-D3)S_n-Fc (A) Material The 96-well Microlon microtiter plates were purchased from Greiner Bio-One (Frickenhausen, Germany). Recombinant human IL-6 and soluble IL-6 receptor (sIL-6R) were obtained from BioSource (Solingen, Germany) and R&D Systems (Wiesbaden, Germany), respectively. The primary anti-sIL-6R antibody (clone M91, mouse IgG1) was from Beckman Coulter (Krefeld, Germany). The secondary anti-mouse IgG HRP-conjugated antibody from GE Healthcare (Freiburg, Germany) was the same as in the Western blotting experiments (see Example 1, A and C). Ready-to-use Tetramethylbenzidin (TMB) HRP substrate was purchased from Sigma-Aldrich (Taufkirchen, Germany).
For quality control and comparison between different lots of sgp130Fc variants, a standard ELISA was designed. All steps except for coating were carried out at room temperature, all washing steps were performed three times with a volume of 250 µl, and all conditions were measured in triplicate. A 96 well microtiter plate was coated with 100 ng/Well of original sgp130Fc as an internal standard and an equimolar quantity of sgp130(D1-D3)S_n-Fc in 100 µl PBS at 4° C. overnight. Thus, sgp130Fc and its variants served as capture reagent, while the bound sIL-6R was detected (see below). After washing with 0.05% Tween-20/PBS, wells were blocked with 200 µl/Well 3% BSA/PBS for 2 h. Subsequently, the blocking solution was removed, and wells were incubated for 1 h with a 1:2 dilution series (100 µl/Well) of recombinant human IL-6 (3.2 µg/ml to 50 ng/ml) and sIL-6R (1.6 µg/ml to 25 ng/ml) in 3% BSA/PBS. After washing with 0.05% Tween-20/PBS, wells were incubated with the primary anti-sIL-6R antibody diluted 1:2,000 in 3% BSA/PBS (100 µl/Well) for 1 h. Another series of three washing steps with 0.05% Tween-20/PBS was followed by a 1-h incubation with the secondary anti-mouse IgG HRP-conjugated antibody at 1:5,000 (100 µl/Well). After washing with 0.05% Tween-20/PBS and subsequently with dH_2O, plates were incubated with 100 µl/Well TMB substrate for about 5 min (depending on the intensity of the developing blue colour). The substrate reaction was stopped by adding 100 µl/Well 0.5 M sulfuric acid to the wells. Finally, the $A450$ was measured in a microplate reader.

Row | binding result | Binder
1 | binds | sgp130(D1-D3)S0-Fc (Fc fusion, No spacer between D3 and Fc; V5 and 6xHis tags are not present; also called sgp130(D1-D3)Fc; sgp130(D1-3)Fc; not shown: IgG-Fc part; its beginning is printed as 'SCD'; detected with an anti-human IgG (Fc) antibody) ELLDPCGYISPESPVVQLHSNFTAVCVLKEKCMDYFHVNANYIVWKTNHFTIPKEQYTIINRTASSVTFTDIASLNIQLTCNILTFGQLEQNVYGITIISGLPPEKPKNLSCIVNEGKKMRCEWDGGRETHLETNFTLKSEWATHKFADCKAKRDTPTSCTVDYSTVYFVNIEVWVEAENALGKVTSDHINFDPVYKVKPNPPHNLSVINSEELSSILKLTWTNPSIKSVIILKYNIQYRTKDASTWSQIPPEDTASTRSSFTVQDLKPFTEYVFRIRCMKEDGKGYWSDWSEEASGITYED
2 | binds | sgp130(D1-D3)S1-Fc (Fc fusion, D4-D6 replaced by one GGGGS repeat; No tags; not shown: IgG-Fc part; its beginning is printed as 'SCD'; detected with an anti-human IgG (Fc) antibody) ELLDPCGYISPESPVVQLHSNFTAVCVLKEKCMDYFHVNANYIVWKTNHFTIPKEQYTIINRTASSVTFTDIASLNIQLTCNILTFGQLEQNVYGITIISGLPPEKPKNLSCIVNEGKKMRCEWDGGRETHLETNFTLKSEWATHKFADCKAKRDTPTSCTVDYSTVYFVNIEVWVEAENALGKVTSDHINFDPVYKVKPNPPHNLSVINSEELSSILKLTWTNPSIKSVIILKYNIQYRTKDASTWSQIPPEDTASTRSSFTVQDLKPFTEYVFRIRCMKEDGKGYWSDWSEEASGITYEDGGGGS
3 | binds | sgp130(D1-D3)S2-Fc (Fc fusion, D4-D6 replaced by two GGGGS repeats; No tags; not shown: IgG-Fc part; its beginning is printed as 'SCD'; detected with an anti-human IgG (Fc) antibody) ELLDPCGYISPESPVVQLHSNFTAVCVLKEKCMDYFHVNANYIVWKTNHFTIPKEQYTIINRTASSVTFTDIASLNIQLTCNILTFGQLEQNVYGITIISGLPPEKPKNLSCIVNEGKKMRCEWDGGRETHLETNFTLKSEWATHKFADCKAKRDTPTSCTVDYSTVYFVNIEVWVEAENALGKVTSDHINFDPVYKVKPNPPHNLSVINSEELSSILKLTWTNPSIKSVIILKYNIQYRTKDASTWSQIPPEDTASTRSSFTVQDLKPFTEYVFRIRCMKEDGKGYWSDWSEEASGITYEDGGGGSGGGGS
4 | binds | sgp130(D1-D3)S3-Fc (Fc fusion, D4-D6 replaced by three GGGGS repeats; No tags; not shown: IgG-Fc part; its beginning is printed as 'SCD'; detected with an anti-human IgG (Fc) antibody) ELLDPCGYISPESPVVQLHSNFTAVCVLKEKCMDYFHVNANYIVWKTNHFTIPKEQYTIINRTASSVTFTDIASLNIQLTCNILTFGQLEQNVYGITIISGLPPEKPKNLSCIVNEGKKMRCEWDGGRETHLETNFTLKSEWATHKFADCKAKRDTPTSCTVDYSTVYFVNIEVWVEAENALGKVTSDHINFDPVYKVKPNPPHNLSVINSEELSSILKLTWTNPSIKSVIILKYNIQYRTKDASTWSQIPPEDTASTRSSFTVQDLKPFTEYVFRIRCMKEDGKGYWSDWSEEASGITYEDGGGGSGGGGSGGGGS
